In patent US20210139548A1 (published 2021) one finds Ki data, which are given here for five molecules.

*1 amine or outer side, *2 acyl side, *3 side chain or, on linkers, in order; H or OH if unused. Side-chain parts run from the residue outwards. The star is where a group is joined. C18 diacid = O=C(O)CCCCCCCCCCCCCCCCC(=O)*; γGlu = O=C(O)[C@H](CCC(=O)[*:2])N[*:1]; Isovaleryl = CC(C)CC(=O)*; AEEA = NCCOCCOCC(=O)O

The chains are these.
T1: human neuropeptide Y2 receptor (human, UniProt P49146 1-381)
T1 construct: whole, on cells; also called hNPY2 receptor; hNPY2-R
T1 sequence (looked up): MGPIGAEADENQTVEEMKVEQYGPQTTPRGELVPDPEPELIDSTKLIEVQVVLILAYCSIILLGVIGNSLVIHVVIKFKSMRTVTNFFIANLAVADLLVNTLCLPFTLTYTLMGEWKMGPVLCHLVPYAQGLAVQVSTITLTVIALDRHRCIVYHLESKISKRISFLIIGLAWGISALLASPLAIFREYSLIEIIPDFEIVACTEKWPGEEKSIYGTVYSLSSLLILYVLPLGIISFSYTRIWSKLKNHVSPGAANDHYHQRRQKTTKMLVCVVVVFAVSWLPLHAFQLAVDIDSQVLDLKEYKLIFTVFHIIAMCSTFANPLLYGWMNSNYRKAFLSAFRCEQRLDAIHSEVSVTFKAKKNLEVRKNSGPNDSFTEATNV

B1: Compound 180 (peptide)
peptide: Isovaleryl-APEK([AEEA-AEEA-γGlu-C18 diacid])PEEDASPEETQQYYVSLRHYYNWLTRQRY-NH2
SMILES: CC(C)CC(=O)N[C@@H](C)C(=O)N1CCC[C@H]1C(=O)N[C@@H](CCC(=O)O)C(=O)N[C@@H](CCCCNC(=O)COCCOCCNC(=O)COCCOCCNC(=O)CC[C@H](NC(=O)CCCCCCCCCCCCCCCCC(=O)O)C(=O)O)C(=O)N1CCC[C@H]1C(=O)N[C@@H](CCC(=O)O)C(=O)N[C@@H](CCC(=O)O)C(=O)N[C@@H](CC(=O)O)C(=O)N[C@@H](C)C(=O)N[C@@H](CO)C(=O)N1CCC[C@H]1C(=O)N[C@@H](CCC(=O)O)C(=O)N[C@@H](CCC(=O)O)C(=O)N[C@H](C(=O)N[C@@H](CCC(N)=O)C(=O)N[C@@H](CCC(N)=O)C(=O)N[C@@H](Cc1ccc(O)cc1)C(=O)N[C@@H](Cc1ccc(O)cc1)C(=O)N[C@H](C(=O)N[C@@H](CO)C(=O)N[C@@H](CC(C)C)C(=O)N[C@@H](CCCNC(=N)N)C(=O)N[C@@H](Cc1c[nH]cn1)C(=O)N[C@@H](Cc1ccc(O)cc1)C(=O)N[C@@H](Cc1ccc(O)cc1)C(=O)N[C@@H](CC(N)=O)C(=O)N[C@@H](Cc1c[nH]c2ccccc12)C(=O)N[C@@H](CC(C)C)C(=O)N[C@H](C(=O)N[C@@H](CCCNC(=N)N)C(=O)N[C@@H](CCC(N)=O)C(=O)N[C@@H](CCCNC(=N)N)C(=O)N[C@@H](Cc1ccc(O)cc1)C(N)=O)[C@@H](C)O)C(C)C)[C@@H](C)O
B2: Compound 181 (peptide)
peptide: Isovaleryl-APEK([AEEA-AEEA-γGlu-C18 diacid])PEADASPEELQRYYVALRHYYNWLTRQRY-NH2
SMILES: CC(C)CC(=O)N[C@@H](C)C(=O)N1CCC[C@H]1C(=O)N[C@@H](CCC(=O)O)C(=O)N[C@@H](CCCCNC(=O)COCCOCCNC(=O)COCCOCCNC(=O)CC[C@H](NC(=O)CCCCCCCCCCCCCCCCC(=O)O)C(=O)O)C(=O)N1CCC[C@H]1C(=O)N[C@@H](CCC(=O)O)C(=O)N[C@@H](C)C(=O)N[C@@H](CC(=O)O)C(=O)N[C@@H](C)C(=O)N[C@@H](CO)C(=O)N1CCC[C@H]1C(=O)N[C@@H](CCC(=O)O)C(=O)N[C@@H](CCC(=O)O)C(=O)N[C@@H](CC(C)C)C(=O)N[C@@H](CCC(N)=O)C(=O)N[C@@H](CCCNC(=N)N)C(=O)N[C@@H](Cc1ccc(O)cc1)C(=O)N[C@@H](Cc1ccc(O)cc1)C(=O)N[C@H](C(=O)N[C@@H](C)C(=O)N[C@@H](CC(C)C)C(=O)N[C@@H](CCCNC(=N)N)C(=O)N[C@@H](Cc1c[nH]cn1)C(=O)N[C@@H](Cc1ccc(O)cc1)C(=O)N[C@@H](Cc1ccc(O)cc1)C(=O)N[C@@H](CC(N)=O)C(=O)N[C@@H](Cc1c[nH]c2ccccc12)C(=O)N[C@@H](CC(C)C)C(=O)N[C@H](C(=O)N[C@@H](CCCNC(=N)N)C(=O)N[C@@H](CCC(N)=O)C(=O)N[C@@H](CCCNC(=N)N)C(=O)N[C@@H](Cc1ccc(O)cc1)C(N)=O)[C@@H](C)O)C(C)C
B3: Compound 182 (peptide)
peptide: Isovaleryl-APEK([AEEA-AEEA-γGlu-C18 diacid])PEEDGSPEELQRYYVELRHYYNWLTRQRY-NH2
SMILES: CC(C)CC(=O)N[C@@H](C)C(=O)N1CCC[C@H]1C(=O)N[C@@H](CCC(=O)O)C(=O)N[C@@H](CCCCNC(=O)COCCOCCNC(=O)COCCOCCNC(=O)CC[C@H](NC(=O)CCCCCCCCCCCCCCCCC(=O)O)C(=O)O)C(=O)N1CCC[C@H]1C(=O)N[C@@H](CCC(=O)O)C(=O)N[C@@H](CCC(=O)O)C(=O)N[C@@H](CC(=O)O)C(=O)NCC(=O)N[C@@H](CO)C(=O)N1CCC[C@H]1C(=O)N[C@@H](CCC(=O)O)C(=O)N[C@@H](CCC(=O)O)C(=O)N[C@@H](CC(C)C)C(=O)N[C@@H](CCC(N)=O)C(=O)N[C@@H](CCCNC(=N)N)C(=O)N[C@@H](Cc1ccc(O)cc1)C(=O)N[C@@H](Cc1ccc(O)cc1)C(=O)N[C@H](C(=O)N[C@@H](CCC(=O)O)C(=O)N[C@@H](CC(C)C)C(=O)N[C@@H](CCCNC(=N)N)C(=O)N[C@@H](Cc1c[nH]cn1)C(=O)N[C@@H](Cc1ccc(O)cc1)C(=O)N[C@@H](Cc1ccc(O)cc1)C(=O)N[C@@H](CC(N)=O)C(=O)N[C@@H](Cc1c[nH]c2ccccc12)C(=O)N[C@@H](CC(C)C)C(=O)N[C@H](C(=O)N[C@@H](CCCNC(=N)N)C(=O)N[C@@H](CCC(N)=O)C(=O)N[C@@H](CCCNC(=N)N)C(=O)N[C@@H](Cc1ccc(O)cc1)C(N)=O)[C@@H](C)O)C(C)C
B4: Compound 184 (peptide)
peptide: Isovaleryl-APEK([AEEA-AEEA-γGlu-C18 diacid])PEEAASPEELQRYYVTLRHYYNWLTRQRY-NH2
SMILES: CC(C)CC(=O)N[C@@H](C)C(=O)N1CCC[C@H]1C(=O)N[C@@H](CCC(=O)O)C(=O)N[C@@H](CCCCNC(=O)COCCOCCNC(=O)COCCOCCNC(=O)CC[C@H](NC(=O)CCCCCCCCCCCCCCCCC(=O)O)C(=O)O)C(=O)N1CCC[C@H]1C(=O)N[C@@H](CCC(=O)O)C(=O)N[C@@H](CCC(=O)O)C(=O)N[C@@H](C)C(=O)N[C@@H](C)C(=O)N[C@@H](CO)C(=O)N1CCC[C@H]1C(=O)N[C@@H](CCC(=O)O)C(=O)N[C@@H](CCC(=O)O)C(=O)N[C@@H](CC(C)C)C(=O)N[C@@H](CCC(N)=O)C(=O)N[C@@H](CCCNC(=N)N)C(=O)N[C@@H](Cc1ccc(O)cc1)C(=O)N[C@@H](Cc1ccc(O)cc1)C(=O)N[C@H](C(=O)N[C@H](C(=O)N[C@@H](CC(C)C)C(=O)N[C@@H](CCCNC(=N)N)C(=O)N[C@@H](Cc1c[nH]cn1)C(=O)N[C@@H](Cc1ccc(O)cc1)C(=O)N[C@@H](Cc1ccc(O)cc1)C(=O)N[C@@H](CC(N)=O)C(=O)N[C@@H](Cc1c[nH]c2ccccc12)C(=O)N[C@@H](CC(C)C)C(=O)N[C@H](C(=O)N[C@@H](CCCNC(=N)N)C(=O)N[C@@H](CCC(N)=O)C(=O)N[C@@H](CCCNC(=N)N)C(=O)N[C@@H](Cc1ccc(O)cc1)C(N)=O)[C@@H](C)O)[C@@H](C)O)C(C)C
B5: Compound 183 (peptide)
peptide: Isovaleryl-APEK([AEEA-AEEA-γGlu-C18 diacid])PPEDASPEELQRYYVSLRHYYNWLTRQRY-NH2
SMILES: CC(C)CC(=O)N[C@@H](C)C(=O)N1CCC[C@H]1C(=O)N[C@@H](CCC(=O)O)C(=O)N[C@@H](CCCCNC(=O)COCCOCCNC(=O)COCCOCCNC(=O)CC[C@H](NC(=O)CCCCCCCCCCCCCCCCC(=O)O)C(=O)O)C(=O)N1CCC[C@H]1C(=O)N1CCC[C@H]1C(=O)N[C@@H](CCC(=O)O)C(=O)N[C@@H](CC(=O)O)C(=O)N[C@@H](C)C(=O)N[C@@H](CO)C(=O)N1CCC[C@H]1C(=O)N[C@@H](CCC(=O)O)C(=O)N[C@@H](CCC(=O)O)C(=O)N[C@@H](CC(C)C)C(=O)N[C@@H](CCC(N)=O)C(=O)N[C@@H](CCCNC(=N)N)C(=O)N[C@@H](Cc1ccc(O)cc1)C(=O)N[C@@H](Cc1ccc(O)cc1)C(=O)N[C@H](C(=O)N[C@@H](CO)C(=O)N[C@@H](CC(C)C)C(=O)N[C@@H](CCCNC(=N)N)C(=O)N[C@@H](Cc1c[nH]cn1)C(=O)N[C@@H](Cc1ccc(O)cc1)C(=O)N[C@@H](Cc1ccc(O)cc1)C(=O)N[C@@H](CC(N)=O)C(=O)N[C@@H](Cc1c[nH]c2ccccc12)C(=O)N[C@@H](CC(C)C)C(=O)N[C@H](C(=O)N[C@@H](CCCNC(=N)N)C(=O)N[C@@H](CCC(N)=O)C(=O)N[C@@H](CCCNC(=N)N)C(=O)N[C@@H](Cc1ccc(O)cc1)C(N)=O)[C@@H](C)O)C(C)C

This experiment deals with T1, human neuropeptide Y2 receptor. Nature of the experiment: radioligand competition (125I-PYY(1-36)), hNPY2R membranes. The method, boiled down: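 Commercial human Y2 receptor membranes (0.5 μg protein/well) were incubated with peptide for 2 h at room temperature in 50 mM HEPES, 5 mM MgCl₂, 1 mM CaCl₂, pH 7.4, with 0.2% ovalbumin. Bound radioligand was separated on PEI-soaked GF/C filters and counted by scintillation, and IC₅₀ came from nonlinear sigmoidal regression.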
(In a radioligand displacement assay an active substance lowers the binding of a labelled ligand.)
Usually Ki stands for a measure of affinity in units of concentration, obtained from inhibition or displacement. Lower therefore signals a stronger hold on the target. B1 had a Ki of 3.85 nM. Molecule B2 showed a Ki of 0.67 nM. Then B3, with 3.45 nM. In the case of B4 it was 2.06 nM; in that of B5, 0.7 nM.
